Source: patent US20200109211A1

Biological target: human CD160 (CD160 GPI isoform) on cells (human) (UniProt O95971)
Experiment: flow cytometry, percentage of labelled YT2C2 NK cells, 0.39-50 nM; the text means weaker binding

human CD160 (CD160 GPI isoform) on cells (human), sequence (O95971 25-159 limits assumed): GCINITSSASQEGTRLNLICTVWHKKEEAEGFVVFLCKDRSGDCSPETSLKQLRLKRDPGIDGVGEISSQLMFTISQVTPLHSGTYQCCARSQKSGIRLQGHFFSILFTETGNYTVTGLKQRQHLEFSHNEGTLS

EC50, factor against H7 IgG4 (ELB01101): 2 fold
B1: Fab CH1 IgG1 D12 (Fab)
heavy: QVQLVQSGAEVKKPGASVKVSCKASGYTFSDFWMQWIRQAPGQGLEWIGAIYPGDDDARVTQKFRGRATLTADKSTSTAYMELSSLRSEDTAVYYCARRGIAAVVGGFDYWGQGTTLTVSSASTKGPSVFPLAPSSKSTSGGTAALGCLVKDYFPEPVTVSWNSGALTSGVHTFPAVLQSSGLYSLSSVVTVPSSSLGTQTYICNVNHKPSNTKVDKRV
light: EIVLTQSPATLSLSPGERATLSCRASQSISNHLHWYQQKPGQAPRLLIKYASQSISGIPARFSGSGSGTDFTLTISSLEPEDFAVYFCQQSNSWPLTFGGGTKVEIKRTVAAPSVFIFPPSDEQLKSGTASVVCLLNNFYPREAKVQWKVDNALQSGNSQESVTEQDSKDSTYSLSSTLTLSKADYEKHKVYACEVTHQGLSSPVTKSFNRGEC
